Where no end group is shown, it is not given here. [ ]: non-standard residue; d: D form. Aib = CC(C)(N)C(=O)O
Key:
[1] = biological target: GLP-1 receptor (GLP-1R), stably expressed on HEK293 cells; test: cell-based or functional assay
[2] = biological target: Glucagon receptor (GCGR), stably expressed on HEK293 cells; test: cell-based or functional assay

Binder	GLP-1R (nM EC50), receptor-mediated cAMP production in HEK293 cells [1] [nM]	GCGR (nM EC50), receptor-mediated cAMP production in HEK293 cells [2] [nM]
HSQGTFTSDYSKYLDERAAKEFIAWLEAGG-NH2 (not fully specified (residue 20); printed as HSQGTFTSDYSKYLDERAAK*EFIAWLEAGG) [dgc001]	1.13	0.806
H[Aib]QGTFTSDYSKYLEERAAKEFIAWLEGEG-NH2 (not fully specified (residue 20); printed as HAibQGTFTSDYSKYLEERAAK*EFIAWLEGEG) [dgc021]	0.382	3.93
HXQGTFTSDYSKYLEERAAKEFIAWLEGEG (HELM PEPTIDE1{H.[Aib].Q.G.T.F.T.S.D.Y.S.K.Y.L.E.E.R.A.A.K.E.F.I.A.W.L.E.G.E.G.[am]}|PEPTIDE2{[CCCCCCCCCCCCCCCC(=O)[*:2]].[gGlu].[gGlu]}$PEPTIDE1,PEPTIDE2,20:R3-3:R2$$$V2.0; N-terminus assumed; SMILES CCCCCCCCCCCCCCCC(=O)N[C@@H](CCC(=O)N[C@@H](CCC(=O)NCCCC[C@H](NC(=O)[C@H](C)NC(=O)[C@H](C)NC(=O)[C@H](CCCNC(=N)N)NC(=O)[C@H](CCC(=O)O)NC(=O)[C@H](CCC(=O)O)NC(=O)[C@H](CC(C)C)NC(=O)[C@H](Cc1ccc(O)cc1)NC(=O)[C@H](CCCCN)NC(=O)[C@H](CO)NC(=O)[C@H](Cc1ccc(O)cc1)NC(=O)[C@H](CC(=O)O)NC(=O)[C@H](CO)NC(=O)[C@@H](NC(=O)[C@H](Cc1ccccc1)NC(=O)[C@@H](NC(=O)CNC(=O)[C@H](CCC(N)=O)NC(=O)C(C)(C)NC(=O)[C@@H](N)Cc1c[nH]cn1)[C@@H](C)O)[C@@H](C)O)C(=O)N[C@@H](CCC(=O)O)C(=O)N[C@@H](Cc1ccccc1)C(=O)N[C@H](C(=O)N[C@@H](C)C(=O)N[C@@H](Cc1c[nH]c2ccccc12)C(=O)N[C@@H](CC(C)C)C(=O)N[C@@H](CCC(=O)O)C(=O)NCC(=O)N[C@@H](CCC(=O)O)C(=O)NCC(N)=O)[C@@H](C)CC)C(=O)O)C(=O)O) [dgc020]	1.51	0.883
HXQGTFTSDYSKYLDERAAKEFIAWLEAGG (HELM PEPTIDE1{H.[Aib].Q.G.T.F.T.S.D.Y.S.K.Y.L.D.E.R.A.A.K.E.F.I.A.W.L.E.A.G.G.[am]}|PEPTIDE2{[CCCCCCCCCCCCCCCC(=O)[*:2]].[gGlu]}$PEPTIDE1,PEPTIDE2,20:R3-2:R2$$$V2.0; N-terminus assumed; SMILES CCCCCCCCCCCCCCCC(=O)N[C@@H](CCC(=O)NCCCC[C@H](NC(=O)[C@H](C)NC(=O)[C@H](C)NC(=O)[C@H](CCCNC(=N)N)NC(=O)[C@H](CCC(=O)O)NC(=O)[C@H](CC(=O)O)NC(=O)[C@H](CC(C)C)NC(=O)[C@H](Cc1ccc(O)cc1)NC(=O)[C@H](CCCCN)NC(=O)[C@H](CO)NC(=O)[C@H](Cc1ccc(O)cc1)NC(=O)[C@H](CC(=O)O)NC(=O)[C@H](CO)NC(=O)[C@@H](NC(=O)[C@H](Cc1ccccc1)NC(=O)[C@@H](NC(=O)CNC(=O)[C@H](CCC(N)=O)NC(=O)C(C)(C)NC(=O)[C@@H](N)Cc1c[nH]cn1)[C@@H](C)O)[C@@H](C)O)C(=O)N[C@@H](CCC(=O)O)C(=O)N[C@@H](Cc1ccccc1)C(=O)N[C@H](C(=O)N[C@@H](C)C(=O)N[C@@H](Cc1c[nH]c2ccccc12)C(=O)N[C@@H](CC(C)C)C(=O)N[C@@H](CCC(=O)O)C(=O)N[C@@H](C)C(=O)NCC(=O)NCC(N)=O)[C@@H](C)CC)C(=O)O) [dgc003]	0.291	1.04

Source: patent publication US20230174608A1 (published 2023)
